According to patent publication US20250332297A1, “DLL3-SPECIFIC BINDING CONSTRUCTS AND THEIR USE IN RADIOTHERAPY” (MOLECULAR PARTNERS AG, priority 2024, published 2025):

Tests used:
[1] = target: T1, Human DLL3-ECD (recombinant extracellular domain of human DLL3, Examples 11, 17 and 19) (human, UniProt Q9NYJ7 27-466, biotinylated at the Avi-tag where immobilised (Examples 11 and 19)); assay: SPR (ProteOn), biotinylated human DLL3-ECD on chip, DARPin conjugate as analyte, 1:1 Langmuir fit
T1 construct: also called hDLL3-ECD; human ECD; not shown: Avi-tag and Fc knob into hole (order depends on the format)
T1 sequence: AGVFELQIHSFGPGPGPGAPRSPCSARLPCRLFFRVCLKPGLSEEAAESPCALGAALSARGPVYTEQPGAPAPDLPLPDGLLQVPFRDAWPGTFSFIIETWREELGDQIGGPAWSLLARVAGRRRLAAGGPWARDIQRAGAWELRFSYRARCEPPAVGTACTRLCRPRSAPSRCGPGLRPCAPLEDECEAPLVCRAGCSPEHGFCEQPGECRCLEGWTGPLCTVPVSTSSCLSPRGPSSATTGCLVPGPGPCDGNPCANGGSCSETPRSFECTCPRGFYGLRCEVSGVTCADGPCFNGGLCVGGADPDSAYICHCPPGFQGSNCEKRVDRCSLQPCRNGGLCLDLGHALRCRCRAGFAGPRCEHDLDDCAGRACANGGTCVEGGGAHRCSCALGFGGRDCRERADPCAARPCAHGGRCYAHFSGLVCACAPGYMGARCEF
Experimental: (§1) The data were generated using BioRad ProteOn instrument in SPR running buffer (PBS, pH 7.4 containing 0.005% Tween 20©). […] The chip was coated with biotinylated target to reach a signal intensity of 1516 RU (human ECD), 257 RU (human NTD), 1500 RU (cyno ECD) and 228 RU (dog NTD). […] Each injection was followed by a regeneration step with 16 mM H₃PO₄ for 18 s. […] The obtained SPR traces were used to determine on-rate and off-rate interaction parameters.

[2] = target: T2, human serum albumin (human, UniProt P02768 25-609); assay: SPR (ProteOn), HSA on chip, DARPin conjugate as analyte, 1:1 Langmuir fit
T2 construct: also called HSA
Experimental: (§2) SPR multi-trace analyses were performed similarly as described in previous Examples.
(§3) All analytes (3-fold dilution ranging from 600-7.41 nM) were injected in succession for 240 s and dissociation was recorded for 600 s using a constant flow of 25 μl/min (HSA) or 100 μl/min (MSA) (25 μl/min).

[3] = target: T3, mouse serum albumin (mouse, UniProt P07724 25-608); assay: SPR (ProteOn), MSA on chip, DARPin conjugate as analyte, 1:1 Langmuir fit
T3 construct: also called MSA
Experimental: as §2, §3

[4] = target: T4, Dog DLL3-NTD (truncated dog DLL3, N-Terminal Domain, residues 27-189, C-terminal 6xHis and Avi-tag) (dog, UniProt A0A8I3MXZ5 27-188, biotinylated at the Avi-tag); assay: SPR (ProteOn), biotinylated dog DLL3-NTD on chip, DARPin conjugate as analyte, 1:1 Langmuir fit
T4 construct: also called dog NTD; not shown: C-terminal 6xHis and Avi-tag
T4 sequence: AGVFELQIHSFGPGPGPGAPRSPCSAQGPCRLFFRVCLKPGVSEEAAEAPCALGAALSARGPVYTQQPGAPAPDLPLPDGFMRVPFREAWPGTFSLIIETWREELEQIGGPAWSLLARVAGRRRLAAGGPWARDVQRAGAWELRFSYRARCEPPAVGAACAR
Experimental: as §1

[5] = target: T5, Human DLL3-NTD (truncated human DLL3, N-Terminal Domain, residues 27-189, C-terminal 6xHis and Avi-tag) (human, UniProt Q9NYJ7 27-189); assay: SPR (ProteOn), biotinylated human DLL3-NTD on chip, DARPin conjugate as analyte, 1:1 Langmuir fit
T5 construct: also called hDLL3-NTD; human NTD; not shown: C-terminal 6xHis and Avi-tag
T5 sequence: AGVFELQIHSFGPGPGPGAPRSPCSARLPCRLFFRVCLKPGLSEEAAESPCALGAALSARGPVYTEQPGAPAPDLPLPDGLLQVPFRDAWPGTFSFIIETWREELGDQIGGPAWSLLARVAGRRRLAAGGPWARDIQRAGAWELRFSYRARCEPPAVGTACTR
Experimental: as §1

[6] = target: T6, Cyno DLL3-ECD (extracellular domain of cynomolgus macaque DLL3, residues 27 to 466, Avi-tag, 3C site, Fc knob … (cynomolgus macaque, UniProt A0A2K5WSR1 27-464, biotinylated at the Avi-tag (Example 11))); assay: SPR (ProteOn), biotinylated cyno DLL3-ECD on chip, DARPin conjugate as analyte, 1:1 Langmuir fit
T6 construct: range 27-466; also called cyno ECD; cynomolgus monkey DLL3; not shown: Avi-tag, 3C protease recognition site and Fc knob into hole
T6 sequence: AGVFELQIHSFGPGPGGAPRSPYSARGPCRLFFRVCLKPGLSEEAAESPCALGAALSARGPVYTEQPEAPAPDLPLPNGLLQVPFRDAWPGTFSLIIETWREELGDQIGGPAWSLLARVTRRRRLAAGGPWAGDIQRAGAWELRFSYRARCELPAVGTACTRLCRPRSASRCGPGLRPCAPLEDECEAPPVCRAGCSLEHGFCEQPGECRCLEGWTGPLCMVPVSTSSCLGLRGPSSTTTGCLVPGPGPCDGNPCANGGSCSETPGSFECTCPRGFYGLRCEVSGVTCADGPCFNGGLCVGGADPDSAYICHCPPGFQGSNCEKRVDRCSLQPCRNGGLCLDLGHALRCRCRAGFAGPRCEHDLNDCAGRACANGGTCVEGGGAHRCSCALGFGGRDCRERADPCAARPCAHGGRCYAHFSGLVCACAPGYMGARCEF
Experimental: as §1

[7] = target: T1, Human DLL3-ECD (recombinant …); assay: SPR (ProteOn), biotinylated human DLL3-ECD on chip, DARPin conjugate as analyte, 1:1 Langmuir fit (same values as Table 14)
Experimental: as §1

T3 sequence (P07724 25-608 limits assumed): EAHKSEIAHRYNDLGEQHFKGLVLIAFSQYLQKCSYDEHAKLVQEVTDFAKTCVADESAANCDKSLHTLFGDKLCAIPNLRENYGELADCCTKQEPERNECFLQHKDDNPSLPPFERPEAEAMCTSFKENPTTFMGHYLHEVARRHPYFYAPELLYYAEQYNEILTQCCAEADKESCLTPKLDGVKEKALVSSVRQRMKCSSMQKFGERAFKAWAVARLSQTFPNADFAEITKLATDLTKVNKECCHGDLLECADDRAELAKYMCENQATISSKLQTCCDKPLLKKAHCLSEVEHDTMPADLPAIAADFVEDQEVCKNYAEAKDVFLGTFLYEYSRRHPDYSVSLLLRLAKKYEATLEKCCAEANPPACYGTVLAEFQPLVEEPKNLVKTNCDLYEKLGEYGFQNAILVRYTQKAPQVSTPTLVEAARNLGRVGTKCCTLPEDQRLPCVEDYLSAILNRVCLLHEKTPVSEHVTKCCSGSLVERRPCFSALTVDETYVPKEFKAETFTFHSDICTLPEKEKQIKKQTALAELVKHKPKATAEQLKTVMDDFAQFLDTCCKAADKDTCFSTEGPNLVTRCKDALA

- Kd [1]: 0.243 nM
- koff [1]: 1.64e-05 s⁻¹
- kon [1]: 67400 M⁻¹ s⁻¹
- Kd [2]: 98.2 nM
- koff [2]: 0.021 s⁻¹
- kon [2]: 213000 M⁻¹ s⁻¹
- Kd [3]: 274 nM
- koff [3]: 0.0425 s⁻¹
- kon [3]: 155000 M⁻¹ s⁻¹
- Kd [4]: 1.46 nM
- koff [4]: 4.86e-05 s⁻¹
- kon [4]: 33400 M⁻¹ s⁻¹
- Kd [5]: 0.394 nM
- koff [5]: 1.99e-05 s⁻¹
- kon [5]: 50400 M⁻¹ s⁻¹
- Kd [6]: 34.6 nM
- koff [6]: 0.00125 s⁻¹
- kon [6]: 36000 M⁻¹ s⁻¹
- Kd [7]: 0.243 nM
- koff [7]: 1.64e-05 s⁻¹
- kon [7]: 67400 M⁻¹ s⁻¹
B1: MAM279-DOTAM (GS-MAM279-tag, SEQ ID NO: 15, conjugated to the chelator DOTAM) (designed binder)
chain: GSDLGKKLLEAARAGQDDEVRELLKAGADVNAKDYFSHTPLHLAARNGHLKIVEVLLKAGADVNAKDFAGKTPLHLAADAGHLEIVEVLLKAGADVNAQDIFGKTPADIAADAGHEDIAEVLQKAAGSPTPTPTTPTPTPTTPTPTPTGSDLGKKLLAAAAQGQDDEVRELLKAGANVNAKDLFGYTPLHLAAWRGHLEIVEVLLKAGADVNAKDAAGETPLHLAAWFGHLEIVEVLLKAGADVNAQDLQGKTPADLAAKEGHEDIAEVLQKAAGSGSC
notes: also called DOTAM-conjugated MAM279; MAM279 conjugate
